From PMC4441422

Assays:
[1] = target: T1, full-length catalytic domain of human N-myristoyltransferase 1 (hNMT1s) (human) (UniProt P30419)
T1 sequence: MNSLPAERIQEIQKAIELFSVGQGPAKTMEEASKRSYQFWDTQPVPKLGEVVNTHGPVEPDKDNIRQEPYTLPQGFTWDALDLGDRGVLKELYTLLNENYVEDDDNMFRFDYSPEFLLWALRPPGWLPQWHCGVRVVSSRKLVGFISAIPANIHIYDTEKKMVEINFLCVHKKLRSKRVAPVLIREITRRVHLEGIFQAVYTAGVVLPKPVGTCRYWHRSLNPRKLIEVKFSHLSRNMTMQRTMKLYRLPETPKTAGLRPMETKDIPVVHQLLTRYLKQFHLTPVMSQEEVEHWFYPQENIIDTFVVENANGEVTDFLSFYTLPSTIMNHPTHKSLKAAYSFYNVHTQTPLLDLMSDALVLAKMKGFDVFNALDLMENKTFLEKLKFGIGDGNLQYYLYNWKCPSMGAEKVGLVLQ

[2] = target: T2, truncation mutant of hNMT1s devoid of 28 N-terminal amino acids (Δ28-hNMT1s) (human) (UniProt P30419)
T2 sequence: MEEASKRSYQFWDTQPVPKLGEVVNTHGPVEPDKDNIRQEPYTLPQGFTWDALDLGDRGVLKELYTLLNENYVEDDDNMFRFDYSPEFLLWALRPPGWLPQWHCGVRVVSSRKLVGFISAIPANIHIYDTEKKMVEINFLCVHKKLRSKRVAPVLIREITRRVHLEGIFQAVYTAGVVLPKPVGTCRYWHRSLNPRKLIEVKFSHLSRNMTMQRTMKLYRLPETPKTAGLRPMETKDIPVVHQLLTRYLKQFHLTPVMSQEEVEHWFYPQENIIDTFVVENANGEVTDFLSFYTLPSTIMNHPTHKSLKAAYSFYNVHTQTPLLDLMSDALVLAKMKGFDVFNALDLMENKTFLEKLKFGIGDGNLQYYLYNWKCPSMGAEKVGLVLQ

Binder: GSNKSKPK [peptide substrate corresponding to the N-terminal sequence of pp60src (amino acids 2-9)]
- K m (μM) for the peptide in the myristoylation reaction (fluorescence assay of CoA release with CPM; peptide 1-50 μM, MYA 30 μM, 5 nM enzyme, 25°C) [1]: 25.7 µM
- K m (μM) for the peptide in the myristoylation reaction (fluorescence assay of CoA release with CPM; peptide 1-50 μM, MYA 30 μM, 5 nM enzyme, 25°C) [2]: 14.4 µM
